For one substance, Kd, koff and kon results are on record in publication PMC9001700.

Read-outs that look alike come from different tables or passages of the source.

Test in all cases: BLI
In general terms: Biolayer interferometry detects binding as a change in optical thickness at a sensor tip.

The target of assay [1] is MERS-CoV stem helix peptide (MERS-CoV).
The target of assay [2] is HCoV-OC43 stem helix peptide (HCoV-OC43).
Assay [3] deals with HCoV-HKU1 stem helix peptide (HCoV-HKU1).
Assay [4] has as its target SARS-CoV-2 stem helix peptide 1145-1167 (SARS-CoV-2).
Assay [5] concerns the target HKU1 stem helix peptide (HCoV-HKU1).
The target of assay [6] is MERS-CoV stem helix peptide (MERS-CoV). The source holds these as a separate data set.
Assay [7] deals with SARS-CoV-2 stem helix peptide 1145-[…]-1167 (SARS-CoV-2).
The target of assay [8] is OC43 stem helix peptide (HCoV-OC43).

As usually defined, the Kd is the free concentration of one partner at which half of the binding sites on the other are occupied at equilibrium, for simple one-to-one binding. By koff is commonly meant a measure of how fast the partners let go of each other. For orientation: kon means a measure of how fast the partners come together. A higher kon goes with faster complex formation. For the substance CV3-25 Fab, the Kd in assay [1] was 20 nM; in assay [2] it was 40 nM; in assay [3], 31 nM; in assay [4], 5.2 nM; in assay [5] it was 31 nM; in assay [6], 20.4 nM. The dissociation constant Kd in assay [7] came to 5.23 nM; in assay [8], 39.3 nM. Moreover, the koff was 0.000676 s⁻¹ in assay [5], 0.000669 s⁻¹ in assay [6], 0.000159 s⁻¹ in assay [7] and 0.000613 s⁻¹ in assay [8]. Besides, the on-rate (kon) in assay [5] is 23000 M⁻¹ s⁻¹; in assay [6] it was 33000 M⁻¹ s⁻¹; in assay [7], 30000 M⁻¹ s⁻¹; in assay [8], 17000 M⁻¹ s⁻¹.
